Experimental data taken from the nanobody polyreactivity screen of Harvey et al. (2022).

Experiment: yeast display, Sf9 membrane polyspecificity reagent, FACS + sequencing; frameworks hold sequencing errors
Method in brief: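 A nanobody's polyreactivity label depends on the gate it was sorted from. Yeast display cells were stained with 10% biotinylated, detergent-solubilized Sf9 membrane reagent for 1 hour at 4 °C, enriched on streptavidin microbeads and sorted by FACS. The low and high (top ~1%) gates were set on anti-HA fluorescence for expression and streptavidin fluorescence for reagent binding.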

Row | Sequence | polyreactivity (PSR sort gate)
1 | QVQLEESGGGLVQAGGSLRLSCAASGSIFPWYAMGWYRQAPGKERELVAVITSGGSTNYADSVKGRFTISRANAKNTVYLQMNSLYPEDTAVYYCYADAPLDDFSPRFEVSTEHSWGQGTQVTVSS | low polyreactivity
2 | QVQLVESGGGLVQAGGSLRLSCAASGRIFSGYAMGWYRQAPGKERELVAAITSRSGSTYYADSVKGRFTISRDNAKNTVYLQMNSLKPEDTAVYYCAAEYVRFYWYTSDYWGQGTQVTVSS | low polyreactivity
3 | QVQLVESGGGLVQAGGSLRLSCAASGSTFIWNGMGWYRQAPGKERELVAAITSSSTNYADSVKGRFTISRDNAKNTVYLQMNSLKPEDTAVYYCAAEIYPLGSLRLGPGEYDHWGQGTQVTVSS | low polyreactivity
4 | QVQLEESGGGLVQAGGSLRISCAASGRTLRSYAMGWYRQAPGKERELVAAISWNGGDTYADSVKGRFTISRDNAKNTVYLQMNSLKPEDTAVYYCAASRWFSRYWYGIDKYNYWGQGTQVTVSS | high polyreactivity
5 | QVQLVESGVGLVQAGGSLRLSCAASGRTFAQYAMGCYRQAPGKERELVAVISRCTGRTYYADSVKGRFTISRDNAKNTVYLQMNSLKPEDTALYYCNTSPKLTYALLYVYWGQGTQVNVSS | high polyreactivity
6 | QVQLVESPGGLDQAGGSLRLSGAASGSTLYDNAMGWYRQAPGKERELVAAISRSGGRTYYADSVKGRFTISRDNAKNTVYLHMNSLIPEDTAVYYCNAVVNGPGNYVTYDSWGQGTQVTVSS | high polyreactivity
7 | QVQLVESGGGLVQAGGSLRVSCAASGRILSRNAMGWYRQAPGKERELVAAISISGGSTYYADSVKGRFTISRDNAKNTVYLQMNSLKPEDTAVYYCNTAYYGSRKYDYWGQGTQVTVSS | high polyreactivity
8 | QVQLVESGGGLVQAGGSLRLSCAASGSIFYRYAMGWSRQAPGKERELVAYISSGVSTNYADSVKGRFTISRDNAKKTVYLQMNSLKPEDTAVYYCAVRHSYTRAYWGRDFWGQGTQVTVSS | low polyreactivity
9 | QVQLVESGGGLVQAGGTLRLSCAPSGRIFKTYAMGWYRQAPGKERELVAAITNNGGSTYYADSVKGRFTISRDNAKNTVYLLMNSLKPEDTAVYYCAVYVKYHYPVVTTGYDYWGQGTQVTVSS | high polyreactivity
10 | QVQLVESGGGLVQAGGSLRLSCAASGSIFGSNAMGWYRQSPGKERELVAAISRSGGSTYYADSVKGRFTISRDNAKNTVYLQMNSLKPEDTAVYYCAVVASRSHTETPEYDFWGQVTQVTVSS | low polyreactivity
11 | QVQLVESGGGLVQAGGSLRLSCAASGSIFYSYAMGRYRQAPGKERELVAAITKSSGSTYYADSVKGRFTISRDNAKNTVYLQMNSLKPEDTAVYYCAATRYRPVRLYYWGQGTQVTVSS | high polyreactivity
12 | QVQRVESGGGLVQAGGSLRLSCAASGFTIGSYAMGWYRQAPGKERELVAAITRRGGSTYYADSEKGRYTISRDNAKNTVSLQMNSLKPEDTAVYYCGKRSRDYVSSFRTSHANDYWGQGTQVTVSS | high polyreactivity
13 | QVQLVESGGGLVQAGCSLRLSCAASGFIFGPNAMGWYRQAPGKERELVAAISWIGSSTYYADSVKGRFTISRDNAKNTVYLQMNSLKPQDNAVYYCAADSSERRLMDFDYWGQGTQVTVSS | low polyreactivity
14 | QVQLVESGGGLVQAGGSLRLSCAASGRTFGIKAMGWYRQAPGKERELVATITTGTSTNYAVSVKGRFTISRDNAKNTVYLQMNSLKPEDTAVYYCAARDWYGWEFDYWGQGTQVTVSA | low polyreactivity
15 | QVQLQESGGGLVQAGGSQRLSCAASGYIFYFQYMGWYRQAPGKEREFVAAISDGANTNYADSVKGRFTISRDNAKNTEYLQMNSLKPEDTAVYYCAVYADEKYYYIYWGQGTQVTVSS | low polyreactivity
16 | QLQLVESGGGLVQAGGSLRLSCAASGSTFPWYTMGWYRQAPGKERELVAAITWNGVSTYYADSVKWRITISRDNAKNTVYFQMNSLKPEDTAVYYCATRIKRIGGFPYYYWGQGTQVTVSS | high polyreactivity
17 | QFQLVESVGGLVQAGGSLRLSCAASGFIFGGYAMGWYIKAPGKERELVAAISSSGGSTYYADSVKGRFTISRDNAKNTVYLQMNSLKPEDTAVYYCAKVGWSRRYYYWGQGTQVTVSS | high polyreactivity
18 | QVQLVESGGGLVQAGGSLRLSCAASGFTFVDNAMGWYRQAPGKERELVAVIDFNDGTTYYADSVKGRFTISRDNAKNSVYLQMNSLKPEDTEVYYCNVDSSLILWVEYDYWGQGTQVTVSS | low polyreactivity
19 | QVQLVESGGGLVQAGGSLRLSCAASGGMGWYRQAPGKERELVATISSVGSTNYADSVKGRFTISRDNAKNTVYLQRNSLKPEVTAVYYCNATGVQYFLYGYWGQGTQVTVSS | low polyreactivity
20 | QVQHVESGGGLVQAGGSLRLSCAASGNNVMGWYRQAPGKDRELVGAISWSGTSTYADSVKGRFTISRVNAKNTVYLKMNSLKPEDTAVYYCAAEQQGRNYRAYRRYDYWGQGTQVTVSS | low polyreactivity
21 | QVQLVESGGGLVQAGGSLRLSCAASGSNFHPNAMGSCRQAPGKERELVAAITKSGGSTYYADSVKGRFTISRDNAKNTVYLQMNSRKPEDTAVYYCNALRYRRVGTLGYDYWGQATQVTVSS | high polyreactivity
22 | QVQLVESGGGLVKAGVSLRLICAASGSTFWYNDRGSYRQSPGKERELVASNSWSGGDTYYADSVKGRLTISRDNAQNTVYFQMNRLKPEDTAVYNCAKGNNWISRLMDYWGQGTQVTVSS | low polyreactivity

Row | Sequence | polyreactivity (PSR sort gate)
23 | QFQLVESGGGFVQAGGSLRLSCAASGRIFGPYAMGWYRQAPGKERELVAAISFSGSGTYYADSVKGRFTISRDNAKNTVYLQMNSLKPEDTAVYYCAATSRKIVAYDHDYWGQGTQVTVSS | low polyreactivity
24 | QVQLVESGGGLVQAGGSLRLSCAASGSIILAYAMGWYRQAPGKERELVAAITGSGGRTYADSVKGRFTISRDNAKNTVYLEMNSLKPEVTAVYYFAAYYYGNWQGYYWGQGTQVIVSS | low polyreactivity
25 | QVQLVESGGGLVQAGGSLRISCAASGSIFKKYAMGWYIQAPGKEREFVAAITRGTYYADSVKGRFTISRDNAKNTVYLQMNSLKPEDTAVYDCYREYWGRGYYRVRGEYDYWGQGTQVTVSS | low polyreactivity
26 | QVQLVESGGGLVQAGGSLRLSCAASGSIFYRNTMGWYRQAPGKERELVASINTGTGTYYADSVKGRFTISRDNAKNTVYLQMNSLKPEDTAVYYCNSKGWVWPFPSYYPYDSWGQGTQVTVSS | high polyreactivity
27 | QVQLVESGGGLVQAGGSLRLSCAASGITLSANAMGWYRQAPGKERELVATITWSGGSTYYADSVKGRFTISRDNAKNTVYLQMNSLKPEDTAVYYCNARSYDEYPYYSYNYWGQGTQVTVSS | low polyreactivity
28 | QVQLVESGGGLVQAGGSLRLSCAASGRTFYPYAMGWYRQAPGKERELVAAIRSSGGTTYYADSVKGRFTISRDNAKNTVYLQMNSLKPEDTAVYYCAAYVDRQGGYYWGQGTQVTVSS | high polyreactivity
29 | QVQLVESGGGLVQAGGSLRLSCAASGRTFGIYVMGWYRQAPGKERELVAAIRGGGTTYYADSVKGRFTISRDNANNTVYLQMNSLKPEDTAVYYCAAESRYQRYDYWGQGTQVTVSS | high polyreactivity
30 | QVHLVESGGGLVQAGGSIRLSCAASGLIFYPYAMGWYRKAHGKEREFVAAITWSGGSTRYADSVKGRFTISLDNAKNTVYLQMNSLKPEDTAVYYCAARYIWWYDYTYTGLDYWGQGTQVSVSS | high polyreactivity
31 | QVQLVESVGGFVQAGGSLRLSGAASGRTFNFNTMGWSRQAPGKERELVASITSGGSTNYADSVKVRFTISRDNAKNTVYLQMNILKPEDPAVYYCAVTVSGPYAYDYWGQGTQVTVSS | low polyreactivity
32 | QVQLVESGGGLVQAGGSLRLSCAASGSIFRSYGMGWYRQAPGKDRELVPSISRRGGSTYYADSVKGRFTISRDNAKNTVYLQTNSLKPEDTAVYYCAAVRYNSRVSTTPSEMYYWGQGTQVTVSS | low polyreactivity
33 | QVQLVESGGGLVQAGGSLRLSCAASGYIFQTYAMGWYRQAPGKEREFVAAITSGAGRTSYADSVKGRFTISRDNAKNTVYLQMNSLKPEDTAVYYCAARWRYQLSGSRLSYGKYDYWGQGTQVTVSS | high polyreactivity
34 | QVQLVESGGGLVQAGGSLRLSCAASGRNFNQYGMGRYIPAPGKERELVAAIRSGDSTNYADSVKGRFTISRDNAKNTVYLQMNSLKPEDTAVYYCARDRPGDYAGYDYWGQGTQVNVSS | low polyreactivity
35 | QVQLVESRGGLVQARGSLRLSCAASGSTFVYYALGWYRTAPGTERELVAAITQRGGNTYYADSVKGRFTISRDNAKNTVYLQMNSLKPVDTAVYYCATKSYSQYFKFYYWGQGTQVTVSS | high polyreactivity
36 | QVQLVESGGGLVQAGGSLRLSCAASGFTFQYNAMGWYRQAPGKERELVAAITWTGTSTYADSVKGRFTISRDNAKNTVYLQLNSLKPEDTAVYYCAARYYAPRWFSYDYWGQGTQVTVSS | low polyreactivity
37 | QVQLVESGGGLVQAGGSLRLSCAASGIIFARYAMGWYRQAPGKERELVASINWTGGNTYADSVKGRFTISRDNAKNSVYLQMNSLNPEDTAVYYCARDFSPGSSDPNASISFDHWGQGTQVTVSS | low polyreactivity
38 | QVQLVESGGCLVQAGGSLRLSCAASGSIFRYYAMGWYRQAPGKDRELVAAISWSSGRTYYADSVKGRFTISRDNAKNTVYLQMNSLKPEDTAVYYCAAGVPGYPRYEYDYWGQGTQVTVSS | high polyreactivity
39 | QVQLVESGGGVVQAGGSLRLSSAASGIIFKRYAMGWYRQAPGKEREFVAAISRSGVRTYYADSVKGRFTISRDNAKNTVFLQMNSLNPEDTAVYYCAAEFANYRDTGESVYWFYYWGQGTQVTVSS | high polyreactivity
40 | QVQLVESGGGLVQAGGSLRLSCAASGRIIGYYAMGWYRQAPGKERELVAAISRRGGSTYYADSVKGRFTISRDNAKNTVYLQMNSLKPEDTAVYYCNADRVLTRPRYDYWGQGTQVTVSS | low polyreactivity
41 | QVQLVESGGGLVQAGGSLRLSCAASGRIFVGNAKGWYRQAPRKERELVAAIDESGGSTYYADSVKGRFTISRDNAKTTVYLQMNSLKPEDTAGYYCNAVWFWLRYYKYEYWGQGTQVTVSS | high polyreactivity
42 | QVQLVESGGGLVQAGGSLRLSCAASGLIFKSYAMGWYRQAPGKERELVAAISSGGTTYYADSVKGRFTISRDNAKNTVYLQMNSLKPEDTAVYYCAAYFKQPVEPCEYWGQGTQVTVSS | high polyreactivity
43 | QVQLQESGGGLVQAGGSLRLSCAASGTIFRFRYMGWHRQAPGKERELVAGINGGTTTYYADSVIGRFTISRVNAKNTVYLQMKSLKPDDTAVYNCAAGASRLTYYDYWGQGTQVTVSS | low polyreactivity
